Publication PMC11570498

How the values were obtained:
[1] = biological target: Chlorella sorokiniana Rubisco holoenzyme (CsRubisco) (Chlorella sorokiniana UTEX1230 (endogenous in Chlorella cells)) (UniProt W8SUA8); experiment: SPR; Rubisco immobilised as bait, fragments as analyte (prey); Biacore T100/T200, 25 °C; analyte injected at 15 μl/min for 30 s, 360 s dissociation; fit of y = Bmax·x/(KD + x); apparent KD; triplicate
[2] = biological target: Chlamydomonas reinhardtii Rubisco (CrRubisco) (Chlamydomonas reinhardtii (endogenous in Chlamydomonas cells)) (UniProt P00877); experiment: as above
Sequence of Chlamydomonas reinhardtii Rubisco (CrRubisco) (Chlamydomonas reinhardtii (endogenous in Chlamydomonas cells)) (P08475 46-185 limits assumed, chain 2 of 2, other chains not shown): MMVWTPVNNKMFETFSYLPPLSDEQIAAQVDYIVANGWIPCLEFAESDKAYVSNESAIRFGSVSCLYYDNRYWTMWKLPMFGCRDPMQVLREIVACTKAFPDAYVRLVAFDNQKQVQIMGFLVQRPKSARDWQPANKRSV

[3] = biological target: Chlorella sorokiniana Rubisco holoenzyme (CsRubisco) (Chlorella sorokiniana UTEX1230 (endogenous in Chlorella cells)) (UniProt W8SUA8); experiment: native gel or EMSA; native PAGE gel-shift assay; Rubisco and fragments mixed for 30 min at room temperature; 50 mM Tris-HCl pH 8.0, 50 mM NaCl (Fig. 3a); 4-20% gels, 4 h at 100 V, 4 °C
[4] = biological target: Chlorella sorokiniana Rubisco holoenzyme (CsRubisco) (Chlorella sorokiniana UTEX1230 (endogenous in Chlorella cells)) (UniProt W8SUA8); experiment: cryo-EM structure; 0.5 μM CsRubisco and 16 μM α3–α4 in 200 mM sorbitol, 50 mM HEPES, 50 mM KOAc, 2 mM Mg(OAc)2, 1 mM CaCl2, pH 6.8; D4 map of the holoenzyme and C1 map after symmetry expansion

Kd [1] | Kd [2] | K0.5 (half-occupancy) [3] | percent of the CsRbcL sites occupied [4] | Substance
103 µM | 108 µM | – | – | CsLinker α3 fragment (residues 142–207) (domain or fragment)
1.21 µM | 1.3 µM | 1.2 µM | 23% | CsLinker α3–α4 fragment (residues 142–272) (domain or fragment)
